Consider one substance from PMC3925748.

The assay deals with FUS (full-length recombinant protein; tag not told for these experiments) (UniProt P35637). Kind of assay: cross-linking.

Where only a bound is given, the exact number is not on record here.

With “FUS (full-length recombinant protein; tag not told for these experiments) (from UniProt P35637 1-526) (natural protein)”, the stoichiometry N was less than 5.
